Data set [1] deals with the molecule itself. Nature of the data set: cryo-EM structure.
Data set [2] deals with the molecule itself. Description: negative-stain EM.

For orientation: stoichiometry N means a count of units in the complex or per binding partner.

B1: Arabidopsis thaliana Delta-1-pyrroline-5-carboxylate synthase 2 (atP5CS2), wild type (enzyme, UniProt P54888 1-726, looked up)
chain: MTEIDRSRAFAKDVKRIVVKVGTAVVTGKGGRLALGRLGAICEQLAELNSDGFEVILVSSGAVGLGRQRLRYRQLVNSSFADLQKPQMELDGKACAGVGQSSLMAYYETMFDQLDVTVAQMLVTDSSFRDKDFRKQLSETVKAMLRMRVIPVFNENDAISTRRAPYKDSTGIFWDNDSLAALLSLELKADLLILLSDVEGLYTGPPSDSTSKLIHTFIKEKHQDEITFGEKSKLGRGGMTAKVKAAVNAAYGGVPVIITSGYAAENISKVLRGLRVGTLFHQDAHLWAPVVDTTSRDMAVAARESSRKLQALSSEDRKQILHDIANALEVNEKTIKAENDLDVAAAQEAGYEESLVARLVMKPGKISSLAASVRQLAEMEDPIGRVLKKTQVADDLILEKTSSPIGVLLIVFESRPDALVQIASLAIRSGNGLLLKGGKEARRSNAILHKVITDAIPETVGGKLIGLVTSREEIPDLLKLDDVIDLVIPRGSNKLVSQIKNSTKIPVLGHADGICHVYVDKSGKLDMAKRIVSDAKLDYPAACNAMETLLVHKDLEQNGFLDDLIYVLQTKGVTLYGGPRASAKLNIPETKSFHHEYSSKACTVEIVEDVYGAIDHIHQHGSAHTDCIVTEDSEVAEIFLRQVDSAAVFHNASTRFSDGFRFGLGAEVGISTSRIHARGPVGVEGLLTTRWIMRGKGQVVDGDNGIVYTHKDLPVLQRTEAVENGI
For B1, the “stoichiometry N” value in data set [1] was found to be 4.

B2: truncated atP5CS2 protein consisting of residues 1-290 (atP5CS2-GK) (domain or fragment, Arabidopsis thaliana, UniProt P54888 1-290, looked up)
chain: MTEIDRSRAFAKDVKRIVVKVGTAVVTGKGGRLALGRLGAICEQLAELNSDGFEVILVSSGAVGLGRQRLRYRQLVNSSFADLQKPQMELDGKACAGVGQSSLMAYYETMFDQLDVTVAQMLVTDSSFRDKDFRKQLSETVKAMLRMRVIPVFNENDAISTRRAPYKDSTGIFWDNDSLAALLSLELKADLLILLSDVEGLYTGPPSDSTSKLIHTFIKEKHQDEITFGEKSKLGRGGMTAKVKAAVNAAYGGVPVIITSGYAAENISKVLRGLRVGTLFHQDAHLWAPV
As for B2, the binding result in data set [2] is listed as “binds”.

Values taken from article doi:10.1101/2023.09.07.556688 (bioRxiv, 2023).
